Tests used:
[1] = target: T1, Recombinant human ADAM10 ectodomain (Homo sapiens, UniProt O14672); test: ADAM10 quench fluorescent peptide cleavage assay; type: biochemical; conditions: titrated concentrations
T1 construct: Recombinant human ADAM10 ectodomain
T1 sequence (O14672 214-672 limits assumed): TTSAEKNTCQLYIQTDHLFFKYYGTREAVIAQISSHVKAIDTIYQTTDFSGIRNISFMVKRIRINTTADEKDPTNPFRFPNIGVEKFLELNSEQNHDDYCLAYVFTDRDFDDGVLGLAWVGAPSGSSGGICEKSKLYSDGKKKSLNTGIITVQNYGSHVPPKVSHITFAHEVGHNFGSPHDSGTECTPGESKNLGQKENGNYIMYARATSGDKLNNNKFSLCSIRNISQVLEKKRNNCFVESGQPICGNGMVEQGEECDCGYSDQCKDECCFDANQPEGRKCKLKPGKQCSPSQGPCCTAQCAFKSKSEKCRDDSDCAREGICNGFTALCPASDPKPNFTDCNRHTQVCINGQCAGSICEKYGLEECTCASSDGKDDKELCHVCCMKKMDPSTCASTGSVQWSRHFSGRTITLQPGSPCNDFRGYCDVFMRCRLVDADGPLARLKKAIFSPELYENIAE

[2] = target: T2, Recombinant human TACE ectodomain (Arg215-Arg651) (Homo sapiens, UniProt P78536); test: Quenched fluorescent peptide cleavage assay, TACE ectodomain; type: biochemical; conditions: 1 nM TACE ectodomain; read-out: IC50, TACE ectodomain proteolysis, quenched fluorescent peptide
T2 construct: Mature recombinant TACE ectodomain (Arg^215-Arg^651) was expressed in baculovirus infected sf9 cells; made in house; host or cells: baculovirus infected Sf9 cells
T2 sequence (P78536 215-651): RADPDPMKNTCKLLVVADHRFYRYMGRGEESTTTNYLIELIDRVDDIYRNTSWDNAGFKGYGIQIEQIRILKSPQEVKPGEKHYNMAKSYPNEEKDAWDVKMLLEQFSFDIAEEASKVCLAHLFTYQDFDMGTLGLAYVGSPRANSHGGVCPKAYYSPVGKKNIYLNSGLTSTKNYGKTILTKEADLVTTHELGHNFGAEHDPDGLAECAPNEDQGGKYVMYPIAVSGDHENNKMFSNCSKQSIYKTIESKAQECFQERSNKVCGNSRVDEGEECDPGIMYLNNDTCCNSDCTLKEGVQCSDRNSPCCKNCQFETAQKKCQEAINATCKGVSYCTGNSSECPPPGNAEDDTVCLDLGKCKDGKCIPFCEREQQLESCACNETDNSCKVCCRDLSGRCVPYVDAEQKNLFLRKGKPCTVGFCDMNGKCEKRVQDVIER
Procedure: (§1) Recombinant human TACE catalytic domain and TACE ectodomain were diluted to 1 nM in 50 mM Tris-HCl, 10 mM CaCl2, 0.05% Brij35, 1% DMSO, pH 7.4 and pre-incubated with titrated concentrations of inhibitor for 4-hours at room temperature. Following incubation, each reaction was separated into 200 μL technical quadruplets in a 96-well black Microwell plate (Nunc 237105), and the fluorogenic substrate methoxycoumarinyl acetyl-Lys-Pro-Leu-Gly-Leu-dinitrophenyl diaminopropionyl-Ala-Arg-NH2 (Peptides International SMO-3670-PI) was added to each well (final concentration 1 μM). Every 30 seconds fluorescence was excited at 320 nm and emission recorded at 405 nm in a Tecan Infinite-200 (at 37° C. for 2000 seconds). Individual readings were normalised against a substrate only control and compiled to produce a mean trend for each variable. A linear regression slope for each reaction was calculated in GraphPad Prism (ΔFU sec^−1) and proteolytic activity was expressed as the slope percentage of an untreated control (% ΔFU sec^−1). Final results represent mean values from three separate experiments.
(§2) Purified recombinant scFvs were subjected to an 8-point fluorometric titration ([TACE]=1 nM) (as above) and a 16-point titration ELISA ([TACE]-500 nM). […] Change in Gibb's Free Energy (ΔΔG) was calculated using the equation: ΔΔG=+RT1n(Ala/WT).

[3] = target: T3, Recombinant human TACE catalytic domain (Homo sapiens, UniProt P78536); test: Quenched fluorescent peptide cleavage assay, isolated TACE catalytic domain; type: biochemical; conditions: 1 nM TACE catalytic domain; read-out: IC50 Cat:WT, isolated catalytic domain, quenched fluorescent peptide
T3 construct: The mature catalytic domain of TACE (Arg^215-Val^477-GlySer-His^6) was prepared using an identical baculovirus system; GlySer-His6 (C); made in house; host or cells: baculovirus system (Sf9)
T3 sequence (P78536 215-477): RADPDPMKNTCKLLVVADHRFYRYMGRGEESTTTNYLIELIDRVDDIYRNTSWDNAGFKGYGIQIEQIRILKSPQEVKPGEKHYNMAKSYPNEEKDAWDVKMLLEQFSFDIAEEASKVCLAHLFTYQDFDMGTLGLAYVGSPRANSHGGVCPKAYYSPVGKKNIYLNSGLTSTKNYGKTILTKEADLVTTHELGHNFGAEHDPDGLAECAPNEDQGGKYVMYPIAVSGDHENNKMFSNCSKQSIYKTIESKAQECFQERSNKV
Procedure: as §1, §2

[4] = target: T4, PDI treated TACE ectodomain (Homo sapiens, UniProt P78536); test: Antibody binding after PDI treatment of the TACE ectodomain
T4 construct: Mature recombinant TACE ectodomain (Arg^215-Arg^651) was expressed in baculovirus infected sf9 cells; made in house; host or cells: baculovirus infected Sf9 cells
T4 sequence (P78536 215-651): as the sequence (P78536 215-651) above

Question: CC(C)(C)[C@H](NC(=O)[C@H](CCCc1ccc(Cl)cc1)CC(=O)NO)C(N)=O [CT1746, reference compound] was tested. Which “effect on ADAM10 proteolytic activity” value [1] did it give?
Answer: rapidly inhibits

B1: D1(A12) scFv: scFv format; VH SEQ ID NO: 7, VL SEQ ID NO: 9 (antibody, listed as Homo sapiens, V domains shown)
VH: EVQLVESGGGLVRPGGSLRLSCAASGFTFSSYAMSWVRQAPGKGLEWVSAISGSGGSTYYADSVKGRFTISRDNTKNSLYLQMTSLRADDTAFYYCVKDFGPGYGTGWFDYWGPGTLVTVSA
VL: SDIQMTQSPSSLSASVGDRVTITCRASQSISSYLNWYQQKPGKAPKLLIHDASSLQSGVPSRFSGSGSGTDFTLTISSLQPEDFATYYCQQSFSIPLTFGGGTKMDIKR
modifications: scFv linker
Question: Which results are given for B1?
Answer: IC50 [2]: 0.89 nM; IC50 [3]: 2.3 nM; immunoreactivity following PDI treatment of the TACE ectodomain [4]: largely resistant to PDI modulation

From patent publication US9150659B2, “Anti-tace antibody molecules and their uses” (priority 2011, dated 2015)
